Laboratory results as given in patent US20250075006A1 (SHANDONG SIMCERE BIOPHARMACEUTICAL, published 2025).
Where two headings read alike, the source gives them in different places.

T1: Cyno GUCY2C ECD (his-tagged cynomolgus monkey GUCY2C protein extracellular domain fusion protein) (cynomolgus monkey, UniProt P25092 24-430 (human entry))
T1 construct: also called monkey GUCY2C-his; monkey GUCY2C-His
T1 chain: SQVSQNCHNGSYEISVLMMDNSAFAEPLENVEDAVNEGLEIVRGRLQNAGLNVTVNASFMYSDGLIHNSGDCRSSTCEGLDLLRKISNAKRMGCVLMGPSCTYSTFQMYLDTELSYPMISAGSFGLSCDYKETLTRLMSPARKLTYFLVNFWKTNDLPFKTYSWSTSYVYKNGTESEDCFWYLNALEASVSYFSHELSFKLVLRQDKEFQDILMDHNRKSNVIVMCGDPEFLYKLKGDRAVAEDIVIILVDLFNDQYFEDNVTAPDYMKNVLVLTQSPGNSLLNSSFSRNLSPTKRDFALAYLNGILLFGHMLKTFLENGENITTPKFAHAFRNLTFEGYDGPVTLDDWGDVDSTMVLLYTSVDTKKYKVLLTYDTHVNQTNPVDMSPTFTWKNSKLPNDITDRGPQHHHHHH


Tests used:
[1] = molecular target: T2, Human GUCY2C ECD (his-tagged human GUCY2C protein extracellular domain fusion protein) (human, UniProt P25092 24-430); experiment: ELISA, plate coated with human GUCY2C-his, OD450
T2 construct: also called human GUCY2C-his; human GUCY2C-His
Experimental: To assay the binding activity of the humanized antibodies to human GUCY2C-his protein, a human GUCY2C-his protein was diluted with PBS to a final concentration of 2 μg/mL and then added to a 96-well ELISA plate at 50 μL/well. The plate was sealed with a plastic film and incubated at 4° C. overnight. The next day, the plate was washed 2 times with PBST, and a blocking buffer [PBS+2% (w/w) BSA] was added for blocking at room temperature for 2 h. The blocking buffer was discarded, and the plate was washed 2 times with PBST. An antibody to be tested or a control antibody diluted in a 1:3 gradient from a starting concentration of 100 nM was added at 50 μL/well. After incubation at 37° C. for 1 h, the plate was washed 3 times with PBST. A horseradish peroxidase (HRP)—labeled secondary antibody (purchased from Merck, Cat. No. AP113P) was added for incubation at 37° C. for 1 h, and the plate was washed 5 times with PBST. A TMB substrate was added at 50 µL/well for incubation at room temperature for 5-10 min, and then a stop solution (1.0 M HCl) was added at 50 μL/well. OD450 nm values were read using an ELISA plate reader (Multimode Plate Reader, EnSight, purchased from Perkin Elmer).

[2] = molecular target: T1, Cyno GUCY2C ECD (his-tagged cynomolgus …); experiment: ELISA, plate coated with monkey GUCY2C-his, OD450
[3] = molecular target: T1, Cyno GUCY2C ECD (his-tagged cynomolgus …); experiment: ELISA, plate coated with monkey GUCY2C-his, OD450
[4] = molecular target: T1, Cyno GUCY2C ECD (his-tagged cynomolgus …); experiment: ELISA, plate coated with monkey GUCY2C-his, OD450
[5] = molecular target: T2, Human GUCY2C ECD (his-tagged human …); experiment: SPR Biacore, antibody on Protein A, antigen injected
Experimental: The strength of antibody-antigen binding was assayed with a BIAcore 8K instrument using a Protein A capture method. First, Protein A was immobilized onto a CM4 chip (purchased from GE, BR-1005-34) using an amino coupling method. According to the instruction of the Amine Coupling Kit (purchased from GE, BR100633), NHS and EDC were mixed with HBS-EP+pH 7.4 as a mobile phase to activate the chip for about 600 s; the Protein A was diluted to 50 μg/mL with 10 mM sodium acetate (pH 4.5) and injected for 600 s, and finally, the remaining activated sites were blocked with ethanolamine. Then, the affinity of the antibody for the antigen was assayed using a multi-cycle kinetic method; in each cycle, first, the antibody to be tested was captured using the Protein A chip, and then a single concentration of antigen protein was injected. The association and dissociation processes of the antibody with the antigen protein were recorded, and finally, the chip was regenerated using Glycine pH 1.5, wherein the mobile phase was HBS-EP+(10 mM HEPES, 150 mM NaCl, 3 mM EDTA, 0.05% surfactant P20), the flow rate was 30 μL/min, the regeneration time was 30 s, and the assay temperature was 25° C. Finally, according to a 1:1 binding model, the data were analyzed, and the antibody-antigen binding kinetics parameters, including the association rate constant Ka, the dissociation rate constant Kd, the equilibrium dissociation constant KD, and the maximum binding signal Rmax, were fitted.
The association rate (Ka), dissociation rate (Kd), and binding affinity (KD) of the recombinant antibodies Lab306-huFc, Lab322-huFc, and Lab323-huFc with the human GUCY2C protein are shown in Table 5. The positive control antibody has good binding activity at the protein level, but has very weak binding at the cellular level. Lab322-huFc and Lab323-huFc, although weak in affinity, bind well to the cellular level, presumably due to differences in the conformation of the proteins and proteins at the viable cellular level.

T2 sequence (P25092 other isoform, or with tags, fused parts or gaps): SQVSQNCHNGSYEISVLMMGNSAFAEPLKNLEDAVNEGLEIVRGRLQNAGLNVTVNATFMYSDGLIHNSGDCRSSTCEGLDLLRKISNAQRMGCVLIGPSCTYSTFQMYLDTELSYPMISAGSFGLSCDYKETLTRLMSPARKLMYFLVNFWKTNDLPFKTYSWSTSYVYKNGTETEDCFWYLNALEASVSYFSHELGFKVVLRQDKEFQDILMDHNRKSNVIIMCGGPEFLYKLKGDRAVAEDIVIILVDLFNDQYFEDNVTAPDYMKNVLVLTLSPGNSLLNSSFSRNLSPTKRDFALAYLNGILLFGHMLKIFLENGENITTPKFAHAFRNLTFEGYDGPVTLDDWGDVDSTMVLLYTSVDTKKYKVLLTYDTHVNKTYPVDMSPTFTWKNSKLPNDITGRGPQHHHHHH

Row | EC50 (read off the curve) [1] [nM] | EC50 (read off the curve) [2] [nM] | EC50 (read off the curve) [3] [nM] | EC50 (read off the curve) [4] [nM] | Kd [5] [nM] | koff [5] [s⁻¹] | kon [5] [M⁻¹ s⁻¹] | Binder
1 | ~0.05 | ~0.05 | ~0.05 | ~0.06 | 1.61 | 0.000235 | 146000 | PF1608-hIgG1 (antibody, V domains shown, also called PF1608-hlgG1; positive control antibody) VH: EVQLVESGGGLVQPGGSLRLSCAASGFTFSSYWMHWVRQAPGKGLEWIGEIKPSNELTNVHEKFKDRFTISVDKAKNSAYLQMNSLRAEDTAVYYCTRTITTTEGYWFFDVWGQGTLVTVSS VL: DIQLTQSPSSLSASVGDRVTITCRASESVDYYGSSLLQWYQQKPGKAPKLLIYAASKLASGVPSRFSGSGSGTDFTLTISSLQPEDFATYYCQQTRKAYTFGQGTKLEIKR
2 | ~0.04 | ~0.03 | ~0.03 | ~0.04 | 2.19 | 0.00028 | 128000 | 5F9-hIgG1 (antibody, V domains shown, also called positive control antibody) VH: QVQLQQWGAGLLKPSETLSLTCAVFGGSFSGYYWSWIRQPPGKGLEWIGEINHRGNTNDNPSLKSRVTISVDTSKNQFALKLSSVTAADTAVYYCARERGYTYGNFDHWGQGTLVTVSS VL: EIVMTQSPATLSVSPGERATLSCRASQSVSRNLAWYQQKPGQAPRLLIYGASTRATGIPARFSGSGSGTEFTLTIGSLQSEDFAVYYCQQYKTWPRTFGQGTNVEIKR
